Reference: PMC4631608 (Journal of structural and functional genomics, 2015)

Target: the molecule itself
Assay: SEC

B1: M. tuberculosis Rv1496 (natural protein)
chain: MMAASHDDDTVDGLATAVRGGDRAALPRAITLVESTRPDHREQAQQLLLRLLPDSGNAHRVGITGVPGVGKSTAIEALGMHLIERGHRVAVLAVDPSSTRTGGSILGDKTRMARLAVHPNAYIRPSPTSGTLGGVTRATRETVVLLEAAGFDVILIETVGVGQSEVAVANMVDTFVLLTLARTGDQLQGIKKGVLELADIVVVNKADGEHHKEARLAARELSAAIRLIYPREALWRPPVLTMSAVEGRGLAELWDTVERHRQVLTGAGEFDARRRDQQVDWTWQLVRDAVLDRVWSNPTVRKVRSELERRVRAGELTPALAAQQILEIANLTDR
stoichiometry N: 2
